Laboratory results as given in patent US10704030B2, “P450-BM3 variants with improved activity” (Codexis, Inc., priority 2015, dated 2020).

Tests used:
Type in all cases: biochemical
[1] = Validation of generalist properties: oxidation of imatinib by lyophilized P450-BM3 variant, UPLC-MS; conditions: [Imatinib] = 1 mM
In short: (§1)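 Lyophilized lysate of E. coli-expressed P450-BM3 variant (stock standardized to 12 μM heme) was incubated 24 h at 30 °C with 1 or 2 mM substrate, 1.0 mM NADP+, 25 mM glucose, 0.5 mg/mL glucose dehydrogenase and 5% DMSO in 100 mM potassium phosphate. Acetonitrile-quenched samples were analyzed by UPLC-MS (positive ESI).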

[2] = Validation of generalist properties: oxidation of loratadine by lyophilized P450-BM3 variant, UPLC-MS; conditions: [Loratadine] = 1 mM
In short: as §1

[3] = Validation of generalist properties: oxidation of diclofenac by lyophilized P450-BM3 variant, UPLC-MS; conditions: [Diclofenac] = 1 mM
In short: as §1

[4] = Validation of generalist properties over the four substrates screened
Experimental: For the production of lyophilized protein powders, LB agar plates supplemented with chloramphenicol (30 μg/mL) were streaked with E. coli containing a desired B. megaterium P450-BM3 variant in an IPTG-inducible vector. The plates were grown at 37° C. for 16 hrs before single clones were selected to inoculate a 15 mL Falcon™ tube (Fisher) containing TB media (3 mL) supplemented with chloramphenicol (30 μg/mL). The tube was shaken at 200 rpm, 30° C., and 85% humidity for 20-24 h to grow the cultures to saturation. Then, 2.5 mL of the overnight culture was used to inoculate sterile 1 L flasks containing TB medium (250 mL) supplemented with chloramphenicol (30 μg/mL), trace element solution (as described above), and 0.05 g/L ammonium iron (III) citrate. After being shaken at 250 rpm, 30° C., and 85% humidity to an OD600 of 0.8-1.2, P450 expression was induced by addition of IPTG (500 uM) and the heme precursor 5-aminolevulinic acid (5-ALA) to a final concentration of 500 uM. The cultures were grown for additional 20-24 hours and centrifuged in pre-weighed 250 mL centrifuge bottles for 20 minutes at 4000 rpm, 4° C. The supernatants were discarded, and the centrifuge bottles containing cell pellets were weighed. The pellets were resuspended in 50 mM potassium phosphate buffer with 2 mM DTT, pH 8.0 (5 mL of buffer per gram of cell pellet). The cells were lysed using a microfluidizer homogenizer, and the suspensions of cells and lysate were collected in sterile 50 mL centrifuge tubes. The samples were centrifuged for 30 minutes at 10,000 rpm, 4° C. The clarified lysate was collected into a plastic petri plate and frozen at −80° C. prior to lyophilization. The enzyme-containing lysates were lyophilized using standard methods known in the art.
Enzyme stocks (˜12 μM) were prepared by dissolving ˜20 mg of each enzyme in 100 mM potassium phosphate buffer, pH 8.0 (1 mL). The concentration of each enzyme stock solution was determined by the UV-visible absorption spectroscopy (after centrifugation to remove particulates) and diluted to standardize at 12 μM heme protein. Substrate solutions were prepared by dissolving each substrate in DMSO to reach a final concentration of 20 mM or 40 mM. Reaction mix (235 μL) followed by enzyme solution (50 μL) was added to the plates. The substrate stock solution was added to the enzyme solutions (15 μL at the two different concentrations). Each reaction contained 100 mM potassium phosphate, 1.0 mM NADP+, 25 mM glucose, 0.5 mg/mL glucose dehydrogenase, 5% DMSO and substrate at 1 or 2 mM. Loratadine, imatinib, and gefitinib (See, FIG. 1) were selected as substrates in addition to diclofenac to validate improved BM3 variants. The reactions were shaken at 450 rpm at 30° C. over 24 hours. All reactions were diluted with acetonitrile to a final concentration of 0.5 mM substrate. The plates were then centrifuged at 3,000 g for 1 hour at 20° C. The supernatant was diluted 1:1 with acetonitrile, filtered using a 0.4 micron filter, and analyzed by UPLC-MS.
For UPLC-MS analysis, the quenched and filtered reactions were transferred to 96-well HTP plates for analysis by UPLC on a Waters Acquity H-class system equipped with an autosampler. 1 uL of quenched sample was injected onto an Acquity UPLC HSS T3 column, 100 Å, (1.8 um; 2.1×100 mm). […] Column eluent was monitored by PDA (200-600 nm) prior to MS analysis in positive ESI mode (desolvation temperature 350° C., 3.25 kV spray voltage, cone voltage 25V). […]

[5] = Validation of generalist properties: oxidation of gefitinib by lyophilized P450-BM3 variant, UPLC-MS; conditions: [Gefitinib] = 1 mM
In short: as §1

[6] = TON = [substrate]*% conversion/[P450]
[7] = fold improvement over parent MCYP-1.2-A07

B1: Variant 15: P450-BM3 variant of SEQ ID NO: 4: K32R; C48S; I95P; L216Y; D232H; E349T; M491A; N574T; T577A; E619D; D722S (protein)
chain: MTIKEMPQPKTFGELKNLPLLNTDKPVQALMRIADELGEIFKFEAPGSVTRYLSSQRLIKEACDESRFDKNLSQALKFARDFAGDGLVTSWTHEPNWKKAHNILLPSFSQQAMKGYHAMMVDIAVQLVQKWERLNADEHIEVSEDMTRLTLDTIGLCGFNYRFNSFYRDQPHPFIISMVRALDEVMNKLQRANPDDPAYDENKRQCQEDIKVMNDYVDKIIADRKARGEQSHDLLTQMLNGKDPETGEPLDDGNISYQIITFLIAGHETTSGLLSFALYFLVKNPHVLQKVAEEAARVLVDPVPSYKQVKQLKYVGMVLNEALRLWPTAPAFSLYAKEDTVLGGEYPLTKGDEVMVLIPQLHRDKTIWGDDVEEFRPERFENPSAIPQHAFKPFGNGQRACIGQQFALHEATLVLGMMLKHFDFEDHTNYELDIKETLTLKPEGFVVKAKSKKIPLGGIPSPSTEQSAKKVRKKAENAHNTPLLVLYGSNAGTAEGTARDLADIAMSKGFAPQVATLDSHAGNLPREGAVLIVTASYNGHPPDNAKQFVDWLDQASADEVKGVRYSVFGCGDKTWAATYQKVPAFIDETLAAKGAENIADRGEADASDDFEGTYEEWRDHMWSDVAAYFNLDIENSEDNKSTLSLQFVDSAADMPLAKMHGAFSTNVVASKELQQPGSARSTRHLEIELPKEASYQEGDHLGVIPRNYEGIVNRVTARFGLSASQQIRLEAEEEKLAHLPLAKTVSVEELLQYVELQDPVTRTQLRAMAAKTVCPPHKVELEALLEKQAYKEQVLAKRLTMLELLEKYPACEMKFSEFIALLPSIRPRYYSISSSPRVDEKQASITVSVVSGEAWSGYGEYKGIASNYLAELQEGDTITCFISTPQSEFTLPKDPETPLIMVGPGTGVAPFRGFVQARKQLKEQGQSLGEAHLYFGCRSPHEDYLYQEELENAQSEGIITLHTAFSRMPNQPKTYVQHVMEQDGKKLIELLDQGAHFYICGDGSQMAPAVEATLMKSYADVHQVSEADARLWLQQLEEKGRYAKDVWAG
modifications: P450_BM3
notes: C48S; I95P; L216Y; D232H; E349T; M491A; N574T; T577A; E619D; D722S
% Conv. [1]: ++++ (15.01-20.00) | TON [1, 6]: ‡‡‡ (5001-10000) | FIOPC (A07) [1, 7]: ** (3.01-5.0) | % Conv. [2]: ++++ (15.01-20.00) | TON [2, 6]: ‡‡‡‡ (10000-50000) | FIOPC (A07) [2, 7]: * (0.0-3.0) | % Conv. [3]: ++++ (15.01-20.00) | TON [3, 6]: ‡‡‡‡ (10000-50000) | FIOPC (A07) [3, 7]: * (0.0-3.0) | performance (% conversion at 1 mM substrate loading) over the substrates screened, in words [4]: moderate activity for all four substrates | % Conv. [5]: ++++ (15.01-20.00) | TON [5, 6]: ‡‡‡‡ (10000-50000) | FIOPC (A07) [5, 7]: **** (10.01-15.00)
